Results from paper PMC3100304, “The Interplay between NF-kappaB and E2F1 Coordinately Regulates Inflammation and Metabolism in Human Cardiac Cells” (PLoS ONE, 2011).

Molecular target: T1, p65 subunit of NF-κB (human (endogenous in AC16), UniProt Q04206 1-551)
T1 construct: p65 subunit of NF-κB (RelA), endogenous in human cardiac AC16 cells; precipitated with an anti-p65 antibody; also called RelA/p65; source: endogenous, human cardiac AC16 cells, nuclear extract
Test: co-IP; AC16 nuclear extracts (25 µg) precipitated with 4 µg anti-p65 and protein A-agarose at 4°C, blotted with anti-E2F1; cells with or without TNF-α (100 ng/ml, 24 h), parthenolide (10 µmol/L), siRNA to p65, or LacZ- or E2F1-carrying plasmids
Details: partners not purified

T1 sequence (Q04206 whole entry): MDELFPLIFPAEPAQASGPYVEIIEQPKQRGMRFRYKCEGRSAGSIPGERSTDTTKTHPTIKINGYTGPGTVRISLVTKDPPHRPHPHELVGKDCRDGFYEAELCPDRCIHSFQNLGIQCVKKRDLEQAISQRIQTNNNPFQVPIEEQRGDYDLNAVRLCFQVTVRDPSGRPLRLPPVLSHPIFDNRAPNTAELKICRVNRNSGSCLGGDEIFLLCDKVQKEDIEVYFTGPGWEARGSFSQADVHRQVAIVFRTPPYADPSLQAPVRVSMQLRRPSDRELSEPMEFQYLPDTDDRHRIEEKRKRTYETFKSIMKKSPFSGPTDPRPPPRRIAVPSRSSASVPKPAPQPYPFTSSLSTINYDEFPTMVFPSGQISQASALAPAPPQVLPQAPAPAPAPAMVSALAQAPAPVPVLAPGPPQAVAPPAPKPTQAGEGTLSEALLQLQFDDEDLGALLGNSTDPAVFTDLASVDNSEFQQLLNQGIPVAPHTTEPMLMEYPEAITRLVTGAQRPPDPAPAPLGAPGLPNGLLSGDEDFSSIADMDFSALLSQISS

B1: E2F1 overexpressed from the pSG5L/E2F1 construct (natural protein)
chain: not shown
notes: human E2F1 expressed from the pSG5L/E2F1 construct (human gene, Addgene plasmid 10736); The transfected cells also hold endogenous E2F1; source: AC16 cells, transfected (Lipofectamine 2000), in nuclear extract
For B1, the “fold of p65-E2F1 association vs. LacZ” value was 2 fold and the “fold of p65-E2F1 association vs. LacZ (with TNF-α)” value was 4 fold.
